We go through 2 molecules from article PMC9210283, “DNA cytosine methylation at the lexA promoter of Escherichia coli is stationary phase specific”.

Data set [1] has as its target T1, LexA (Escherichia coli, UniProt P0A7C2 1-202). Put plainly: EMSA; concentration as LexA dimer; Hill slope 1.1; 10 mM MgCl2; EMSA: 70 mM Tris-HCl pH 7.5, 2 mM PIPES, 180 mM NaCl, 10 mM MgCl2, 1 ug/ml salmon sperm DNA, 100 ug/ml BSA, 5% glycerol, 0.006% bromophenol blue, 0.1 nM probe. As to conditions: protein: recombinant; chain copies: 2; label: 32P (5' on strand 1); blunt.

Data set [2] deals with T1, LexA. The data set is described as follows: EMSA; concentration as LexA dimer; Hill slope 1.2; 10 mM MgCl2; EMSA: 70 mM Tris-HCl pH 7.5, 2 mM PIPES, 180 mM NaCl, 10 mM MgCl2, 1 ug/ml salmon sperm DNA, 100 ug/ml BSA, 5% glycerol, 0.006% bromophenol blue, 0.1 nM probe. The following applies: protein: recombinant; chain copies: 2; label: 32P (5' on strand 1); blunt.

T1 sequence (P0A7C2 whole entry): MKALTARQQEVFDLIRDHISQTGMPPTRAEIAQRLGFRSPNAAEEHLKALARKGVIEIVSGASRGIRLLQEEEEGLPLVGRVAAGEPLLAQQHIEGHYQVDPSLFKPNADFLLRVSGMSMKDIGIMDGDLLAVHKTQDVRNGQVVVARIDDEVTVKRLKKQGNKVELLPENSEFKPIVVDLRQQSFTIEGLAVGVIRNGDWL

B1: lexAop 5mC/5mC (mC16 F / mC3 R) (dsDNA)
DNA 1: AATGCCTGCGGAAACTGTATATACACCCAGGGTCAATTCTGGCT
DNA 2: AGCCAGAATTGACCCTGGGTGTATATACAGTTTCCGCAGGCATT
modifications: 5-methyl-dC at position 28 of strand 1 and position 15 of strand 2
Turning to B1, the dissociation constant (Kd) with LexA [1] was determined as 14 nM.

B2: lexAop C/C (nonmethylated) (dsDNA)
DNA 1: B1 DNA 1
DNA 2: B1 DNA 2
B2: the dissociation constant (Kd) with LexA [2] came to 15 nM.
